Where two headings read alike, the source gives them in different places. Where a SMILES comes first, the peptide text is derived from it. Where no end group is shown, it is not given here. Side-chain parts run from the residue outwards. [ ]: non-standard residue; d: D form. The star is where a group is joined. DOTA = O=C(O)CN1CCN(CC(=O)O)CCN(CC(=O)*)CCN(CC(=O)O)CC1; hArg = N=C(N)NCCCC[C@H](N)C(=O)O; Dab = NCC[C@H](N)C(=O)O; Ahx = NCCCCCC(=O)O
Columns and labels:
[1] = format: physicochemical; settings: pH 7.4
Description: The lipophilicity (L) of tested radiocompounds, defined as the decimal logarithm (logP) of the partition coefficient (P) of the compound between the two immiscible phases, was determined in the system PBS solution (aqueous phase, polar phase, pH 7.4) and n-octanol (organic, non-polar phase) according to the following formula: L=logP=logAo/Aw where Ao —organic phase radioactivity; Aw —aqueous phase radioactivity. Radioactivity of both phases, resulting from the concentration of the tested radiocompound in each of them, was determined by measuring the gamma radiation with a Wizard counter in three independent experiments. Before starting the research, both liquid phases were saturated with each other to avoid errors resulting from the mutual solubility of both liquids. The partition coefficient (P) result is shown as the mean ± SD. After the end of the experiment, we performed RP-HPLC analysis of the aqueous phase to confirm the tested radioconjugate remained intact during the experiment.

[2] = format: in vitro ADME; settings: human, serum
Description: Stability studies of the ^68Ga-1, ^177Lu-1, ^68Ga-2, and ^177Lu-2 radioconjugates in human serum (HS) were performed according to the following procedure: into a vial containing 900 µL of HS we added 100 µL of the tested radioconjugate and incubated the mixture at 37 °C. After the specified incubation times (10 min–4.5 h for ^68Ga-radiocompounds and 10 min–4 days for ^177Lu-radiocompounds), we withdrew the aliquots, mixed with ethanol to precipitate the proteins, and centrifuged (14,000 rpm, 5–15 min) to separate the protein compounds from the supernatant. The gamma radioactivity of the obtained precipitate and supernatant was then measured using a Wizard detector. Using the formula below, the amount of radioconjugate remaining in the supernatant (and also bound by serum protein components) was calculated. ∑ liquid phase radioactivity/∑ liquid phase radioactivity+∑ percipitate radioactivity ×100% We also analyzed the supernatant at each time by RP-HPLC in System 3 with gamma detection for ^68Ga-1 and ^177Lu-1 and System 4 with gamma detection for ^68Ga-2 and ^177Lu-2 to check whether the studied radiocompound remained unchanged during the experiment.

VEGF-A165/NRP-1 complex = settings: read-out: IC50 (VEGF-A165 binding with NRP-1); cited from earlier work
[3] = cited from earlier work

| Compound | logP ± SD [1] | IC50 (VEGF-A165/NRP-1 complex) | other results |
| --- | --- | --- | --- |
| N=C(N)NCCCC[C@H](N)C(=O)NCCCC[C@H](N)C(=O)N[C@@H](CCNC(=O)CCCCCNC(=O)CN1CCN(CC(=O)O)CCN(CC(=O)O)CCN(CC(=O)O)CC1)C(=O)N1CCC[C@H]1C(=O)N[C@@H](CCCNC(=N)N)C(=O)O [^68Ga-2, [^68Ga]Lys(hArg)-Dab(Ahx-DOTA-Ga)-Pro-Arg, metal not drawn] (H-K(hArg)[Dab]([Ahx-DOTA])PR-OH) | −4.57 ± 0.05 |  |  |
| N=C(N)NCCCC[C@H](N)C(=O)NCCCC[C@H](N)C(=O)N[C@@H](CCNC(=O)CCCCCNC(=O)CN1CCN(CC(=O)O)CCN(CC(=O)O)CCN(CC(=O)O)CC1)C(=O)N1CCC[C@H]1C(=O)N[C@@H](CCCNC(=N)N)C(=O)O [^177Lu-2, [^177Lu]Lys(hArg)-Dab(Ahx-DOTA-Lu)-Pro-Arg, metal not drawn] (H-K(hArg)[Dab]([Ahx-DOTA])PR-OH) | −3.75 ± 0.08 |  | radioconjugate remaining in HS sample (in words) ([2]; 24 h): only traces of radioconjugate were present |
| CC(C)C[C@H](NC(=O)[C@H](Cc1c[nH]c2ccccc12)NC(=O)[C@@H](NC(=O)[C@H](C)NC(=O)CCCCCNC(=O)CN1CCN(CC(=O)O)CCN(CC(=O)O)CCN(CC(=O)O)CC1)[C@@H](C)O)C(=O)N1CCC[C@H]1C(=O)N1CCC[C@H]1C(=O)N[C@@H](CCCNC(=N)N)C(=O)O [^68Ga-1, [^68Ga]Ga-DOTA-Ahx-A7R, metal not drawn] ({DOTA-Ahx}-ATWLPPR-OH) | −3.92 ± 0.03 |  |  |
| ATWLPPR [A7R] |  | 5.9 µM |  |
| CC(C)C[C@H](NC(=O)[C@H](Cc1c[nH]c2ccccc12)NC(=O)[C@@H](NC(=O)[C@H](C)NC(=O)CCCCCNC(=O)CN1CCN(CC(=O)O)CCN(CC(=O)O)CCN(CC(=O)O)CC1)[C@@H](C)O)C(=O)N1CCC[C@H]1C(=O)N1CCC[C@H]1C(=O)N[C@@H](CCCNC(=N)N)C(=O)O [^177Lu-1, [^177Lu]Lu-DOTA-Ahx-A7R, metal not drawn] ({DOTA-Ahx}-ATWLPPR-OH) | −3.40 ± 0.14 |  | radioconjugate remaining in HS sample (in words) ([2]; 96 h): still visible |
| Lys(hArg)-Dab-Pro-Arg |  | 0.2 µM | stability half-life in human serum [3]: ~48 h; half-life ([3]; peptidomimetic concentration 0.9 µmol/mL, UV/VIS detection): 41 h |
